The series addresses T1, TRα (A/B + DBD) (chicken, UniProt P04625 1-154).
T1 sequence: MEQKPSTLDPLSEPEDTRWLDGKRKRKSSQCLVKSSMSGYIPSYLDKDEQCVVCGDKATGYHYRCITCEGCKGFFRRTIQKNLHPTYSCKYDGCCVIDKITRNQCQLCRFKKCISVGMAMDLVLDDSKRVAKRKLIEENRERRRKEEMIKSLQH
Kind of series: intrinsic Trp fluorescence quenching; room temperature, 2 uM protein, 5 mM Mg2+; average Kd, two-site fit; 50 mM HEPES pH 7.5, 125 mM NaCl, 5 mM MgCl2, 1 mM TCEP; ITC 25 C, fluorescence room temperature. Conditions: protein: recombinant; tags: 6xHis (pET15b); chain copies: 2; blunt; 19-mer complementary strands annealed.

Results on 1 molecule are retold here after paper PMC5458466, “DNA‐induced unfolding of the thyroid hormone receptor α A/B domain through allostery”.

B1: DR4 TRE (dsDNA)
DNA 1: CCAGGTCATTTCAGGTCAG
DNA 2: CTGACCTGAAATGACCTGG
For the molecule B1, the Kd (commonly the constant that tells how readily two partners part at equilibrium) was 2690 ± 220 nM.
